Measured values: the supplement of paper PMC9732359
± gives the uncertainty stated by the source.

assay: protein stability index of a GFP-peptide fusion (yeast GPS) (PSI 1-4); higher = more stable; sorted into four equal gates, so the index is relative within each strain; conditions: doa10∆
Method in brief: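 Tiled 17-residue yeast protein peptides were fused downstream of GFP in a plasmid that also expresses Cherry, and the pooled library was carried in yeast. Mid-log cultures in leucine-free medium were sorted into four equal gates by GFP/Cherry fluorescence ratio, and plasmids from each gate were PCR-amplified and Illumina-sequenced, with reads assigned to strains by barcodes. The protein stability index for each peptide was each gate's read frequency times its gate number, summed.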

Question: For LITKANKVSYYGNPTSK [RTT102], which protein stability index is on record?
Answer: 2.21 ± 0.044

same assay, conditions: pdr5∆

Question: With KTLTGKTITLEVESSDT [RPS31] as the sequence, how does the protein stability index read?
Answer: 2.73 ± 0.04

Question: Which protein stability index does the source give for KTLVALEKQEDYIDNLV [RPC37] here?
Answer: 2.97 ± 0.14

Question: For KTNFQDVILDYQTKKFY [REC8], which protein stability index is on record?
Answer: 1.59 ± 0.051

Question: With KTWEKVTLDFGNIFADL [SMC2] as the sequence, how does the protein stability index read?
Answer: 2.92 ± 0.12

Question: Which protein stability index does the source give for KTYGISDDIISQVDPIT [FAS2] here?
Answer: 1.1 ± 0.12

Question: For KVAKRTKIKPFIKVVNY [RPL27A], which protein stability index is on record?
Answer: 2.8 ± 0.096

Question: For KVGYTLPSHIISTSDVT [RPL4A], which protein stability index is on record?
Answer: 2.69 ± 0.043

Question: For KVKPIRGFCQRLKGKQG [RPO31], which protein stability index is on record?
Answer: 2.97 ± 0.16

Question: With KVPDSTYDMVGGLTKQI [RPT6] as the sequence, how does the protein stability index read?
Answer: 2.63 ± 0.17

Question: With KVQDAIEEEIFDDSSRI [LIN1] as the sequence, how does the protein stability index read?
Answer: 3.19 ± 0.11

Question: For KVQISKIPILAQHESFL [RPN9], which protein stability index is on record?
Answer: 2.05 ± 0.045

Question: With KVTKIWSKESNYDCKVI [PRP28] as the sequence, how does the protein stability index read?
Answer: 2.47 ± 0.059

Question: For KVTLNKETQQYELEFDT [BRR2], which protein stability index is on record?
Answer: 3.01 ± 0.056

Question: Which protein stability index does the source give for KVTSYDITGDIRNEGSD [ISW2] here?
Answer: 3.04 ± 0.21

Question: With KVVEFAITHMIDALGTE [SCL1] as the sequence, how does the protein stability index read?
Answer: 2.28 ± 0.038

Question: With KVVKAIRIYFTEKDDNK [NUT1] as the sequence, how does the protein stability index read?
Answer: 2.67 ± 0.07

Question: With KWPEYVRLQRQKKILSI [RPL8B] as the sequence, how does the protein stability index read?
Answer: 1.16 ± 0.056

Question: Which protein stability index does the source give for KYKLISRIVEIFALCIY [YML103C/NUP188] here?
Answer: 2.19 ± 0.055

Question: Which protein stability index does the source give for KYLLTQRVFKPVDITMM [PRP8] here?
Answer: 2.99 ± 0.11

Question: With KYPARRIHTNDNDIMNL [SSN3] as the sequence, how does the protein stability index read?
Answer: 3.06 ± 0.072

Question: Which protein stability index does the source give for KYYLEESNVNDSDMLTK [NUT1] here?
Answer: 3.15 ± 0.082

Question: For LAAERKVTSTLLEQDTS [PRE9], which protein stability index is on record?
Answer: 2.58 ± 0.082

Question: Which protein stability index does the source give for LADRDEFIQDSAARGLS [ECM29] here?
Answer: 1.31 ± 0.06

Question: For LAFYQVTPEEDEEEDEE [RPL22A], which protein stability index is on record?
Answer: 3.45 ± 0.12

Question: For LAGKRGPKSGSTMGTPT [PGD1], which protein stability index is on record?
Answer: 2.95 ± 0.05

Question: For LAGKVGSIRVHKSGKLS [RPC53], which protein stability index is on record?
Answer: 1.59 ± 0.072

Question: With LAIKDSKKRFAAIWTLC [RPO21] as the sequence, how does the protein stability index read?
Answer: 1.92 ± 0.045

Question: For LAKILARSIDVEKGVNP [ECM29], which protein stability index is on record?
Answer: 1.21 ± 0.062

Question: For LALGCHFQDQKNKKIEV [POP7], which protein stability index is on record?
Answer: 2.97 ± 0.16

Question: For LALQRGATVFVNHLLLF [DPB4], which protein stability index is on record?
Answer: 1.26 ± 0.036

Question: With LALTTLSEPLIKIGIRV [YCG1] as the sequence, how does the protein stability index read?
Answer: 2.06 ± 0.047

Question: Which protein stability index does the source give for LANYLTSALSELSGLIS [QCR2] here?
Answer: 1.88 ± 0.044

Question: For LAPELNQAIWKRGVKGV [RPL31A], which protein stability index is on record?
Answer: 2.04 ± 0.22

Question: For LASSFVNGFLNLGYCND [RPN1], which protein stability index is on record?
Answer: 3.33 ± 0.097

Question: Which protein stability index does the source give for LATAHIYLSRFLIKASV [SSN8] here?
Answer: 1.34 ± 0.051

Question: For LATLLGHNDWVSQVRVV [ASC1], which protein stability index is on record?
Answer: 2.37 ± 0.082

Question: Which protein stability index does the source give for LAYSKIVNGQTFSYVDS [YMR129W/POM152] here?
Answer: 2.64 ± 0.059

Question: With LCDLFVNGSITDQLIQN [NUT1] as the sequence, how does the protein stability index read?
Answer: 2.11 ± 0.22

Question: With LCRQGHNMLNLLIHRKG [PRP8] as the sequence, how does the protein stability index read?
Answer: 2.55 ± 0.068

Question: With LCSMLQEASQVTFIFGE [MED11] as the sequence, how does the protein stability index read?
Answer: 2.74 ± 0.048

Question: Which protein stability index does the source give for LCVLWDDLQSSVIPEVD [YCG1] here?
Answer: 1.87 ± 0.068

Question: For LDCDGGFIDASCIAVMA [RRP45], which protein stability index is on record?
Answer: 1.56 ± 0.049

Question: Which protein stability index does the source give for LDERFASRVALNKEKLG [IRR1] here?
Answer: 1.52 ± 0.1

Question: Which protein stability index does the source give for LDESSEQKNTAKEELNG [YIL149C/MLP2] here?
Answer: 2.95 ± 0.27

Question: For LDNKGSGEDAEEELWNS [YIL149C/MLP2], which protein stability index is on record?
Answer: 2.92 ± 0.14

Question: With LDNLTEDPNSAAFDEVE [DIS3] as the sequence, how does the protein stability index read?
Answer: 3.3 ± 0.072

Question: With LDRPEYLKKREAGEVKD [RPL10] as the sequence, how does the protein stability index read?
Answer: 3.15 ± 0.15

Question: With LDTFIKIDGNPDELIKA [PRE5] as the sequence, how does the protein stability index read?
Answer: 3.19 ± 0.12

Question: With LEDLKDVYASKVRLNAS [PRP8] as the sequence, how does the protein stability index read?
Answer: 2.1 ± 0.041

Question: Which protein stability index does the source give for LEDLKNTKEIAVDLEHH [RRP6] here?
Answer: 2.54 ± 0.047

Question: Which protein stability index does the source give for LEEHKNHLDELQKKFVT [SMC1] here?
Answer: 2.83 ± 0.11

Question: For LEEVEGSCTGKFGYILC [RPB7], which protein stability index is on record?
Answer: 2.56 ± 0.057

Question: For LEIALFKYRKARLEPGT [RPO31], which protein stability index is on record?
Answer: 1.69 ± 0.13

Question: With LEILIVTKDGVRKEFYE [PRE7] as the sequence, how does the protein stability index read?
Answer: 2.54 ± 0.049

Question: With LEIRNKICSSEMINEQK [RGR1] as the sequence, how does the protein stability index read?
Answer: 2.91 ± 0.14

Question: For LEKTSRILNFFDKNTKT [YMR153W/NUP53], which protein stability index is on record?
Answer: 3.09 ± 0.087

Question: With LELNLSVLHSWVQLVQI [YJL039C/NUP192] as the sequence, how does the protein stability index read?
Answer: 1.91 ± 0.085

Question: With LENKENGLLNEISRLKT [SMC2] as the sequence, how does the protein stability index read?
Answer: 3.29 ± 0.079

Question: For LESDFVTGASQFQRLAP [PRE2], which protein stability index is on record?
Answer: 2.97 ± 0.11

Question: With LESDVNIALVSKLRNNI [SRP54] as the sequence, how does the protein stability index read?
Answer: 2.63 ± 0.056

Question: Which protein stability index does the source give for LEYNVALNDVYLDADVA [YML031W/NDC1] here?
Answer: 3.33 ± 0.13

Question: With LFAESHDVLQKLNTLSE [YML103C/NUP188] as the sequence, how does the protein stability index read?
Answer: 3.17 ± 0.072

Question: For LFDAAFYMKKDAVEGVS [RPO31], which protein stability index is on record?
Answer: 2.96 ± 0.14

Question: With LFDTYHASKAIGLPRHS [RRP6] as the sequence, how does the protein stability index read?
Answer: 2.29 ± 0.06

Question: For LFKKITNVNPSKNFNVI [YML103C/NUP188], which protein stability index is on record?
Answer: 2.37 ± 0.038

Question: For LFLNNFVSRIPIMFQDF [IRR1], which protein stability index is on record?
Answer: 2.04 ± 0.048

Question: For LFMKSLIENCKKRNMPL [SWI1], which protein stability index is on record?
Answer: 2.72 ± 0.068

Question: For LFNNHLNGILADEMGLG [SNF2], which protein stability index is on record?
Answer: 2.64 ± 0.1

Question: Which protein stability index does the source give for LFQDGSASLHTRSLKYG [RRP4] here?
Answer: 2.76 ± 0.088

Question: With LFQNVPEQGEEPMKQLN [YAR002W/NUP60] as the sequence, how does the protein stability index read?
Answer: 3.32 ± 0.16

Question: With LFWKVKEEEGSFNNVIG [PRE2] as the sequence, how does the protein stability index read?
Answer: 3.39 ± 0.11

Question: For LGCTLVTLLANVRALYM [RMP1], which protein stability index is on record?
Answer: 1.85 ± 0.21

Question: With LGHPDNYIPGNPLVTPA [COB] as the sequence, how does the protein stability index read?
Answer: 3.07 ± 0.13

Question: Which protein stability index does the source give for LGIKVAELTGDSRLSRK [BRR2] here?
Answer: 2.18 ± 0.19

Question: For LGITGLATDVTTLNEMF [PUP3], which protein stability index is on record?
Answer: 2.39 ± 0.11

Question: With LGLCLVIQIVTGIFMAM [COB] as the sequence, how does the protein stability index read?
Answer: 1.2 ± 0.045

Question: For LGLKLACLGNDGILRLY [YGL100W/SEH1], which protein stability index is on record?
Answer: 1.75 ± 0.05

Question: For LGLLTPEVVELCQKSPV [FAS2], which protein stability index is on record?
Answer: 2.73 ± 0.066

Question: Which protein stability index does the source give for LGLYVGVDDQILATNSL [YJL039C/NUP192] here?
Answer: 3.06 ± 0.12

Question: For LGTIESAQAETEALLLE [DIS3], which protein stability index is on record?
Answer: 3.09 ± 0.092

Question: With LGVASFHGTSTKANDKN [FAS2] as the sequence, how does the protein stability index read?
Answer: 2.95 ± 0.092

Question: With LGYKAKQGFVIYRVRVR [RPL15A] as the sequence, how does the protein stability index read?
Answer: 2.04 ± 0.11

Question: For LGYKDTSVIQDLSEKIL [BRR2], which protein stability index is on record?
Answer: 2.8 ± 0.098

Question: For LHGLTPTAKDVEVIKQL [GAL11], which protein stability index is on record?
Answer: 2.64 ± 0.13

Question: Which protein stability index does the source give for LHKLQRMRLRALETENM [GRR1] here?
Answer: 1.92 ± 0.059

Question: For LHQHVVLKCLKSLESQR [RPC34], which protein stability index is on record?
Answer: 2.58 ± 0.083

Question: For LHQRTHKQVYPLRMETI [DSN1], which protein stability index is on record?
Answer: 2.66 ± 0.042

Question: For LHVVITLLREVVFTRLV [CSN12], which protein stability index is on record?
Answer: 1.26 ± 0.047

Question: For LIAEESEDDSESGKVFI [RPB2], which protein stability index is on record?
Answer: 3.63 ± 0.29

Question: With LIDSLPGVDVSAEEQLR [SRB7] as the sequence, how does the protein stability index read?
Answer: 2.23 ± 0.055

Question: With LIEFQPSQGVHYKVPTD [MED6] as the sequence, how does the protein stability index read?
Answer: 2.98 ± 0.061

Question: Which protein stability index does the source give for LIGCIPYSKNAVEQLAG [YDL088C/ASM4] here?
Answer: 3.01 ± 0.14

Question: Which protein stability index does the source give for LIIDEIHLLHDDRGPVL [BRR2] here?
Answer: 2.98 ± 0.1

Question: Which protein stability index does the source give for LIIDGFKSYATRTVITD [SMC2] here?
Answer: 3.21 ± 0.09

Question: Which protein stability index does the source give for LIKAKNFLVFQGDVEQI [SMC1] here?
Answer: 3.15 ± 0.12

Question: Which protein stability index does the source give for LIKFVDLSRNGRNGSNG [NUT1] here?
Answer: 3.2 ± 0.099

Question: Which protein stability index does the source give for LILAGQVKVKGQLGEMA [YCS4] here?
Answer: 3.35 ± 0.097

Question: Which protein stability index does the source give for LILIPGETMWVPIKSSK [RPN13] here?
Answer: 2.51 ± 0.068

Question: Which protein stability index does the source give for LIPTIFRYITTWENEFL [PRP8] here?
Answer: 2.04 ± 0.047

Question: With LIQEHDSRKNREQSSND [BRN1] as the sequence, how does the protein stability index read?
Answer: 3.38 ± 0.06
